Assay results taken from patent publication EP3529371B1.
Where two headings read alike, the source gives them in different places.

B1: BoNT/F1 (recombinant, activated full-length) (enzyme)
chain: MPVVINSFNYNDPVNDDTILYMQIPYEEKSKKYYKAFEIMRNVWIIPERNTIGTDPSDFDPPASLENGSSAYYDPNYLTTDAEKDRYLKTTIKLFKRINSNPAGEVLLQEISYAKPYLGNEHTPINEFHPVTRTTSVNIKSSTNVKSSIILNLLVLGAGPDIFENSSYPVRKLMDSGGVYDPSNDGFGSINIVTFSPEYEYTFNDISGGYNSSTESFIADPAISLAHELIHALHGLYGARGVTYKETIKVKQAPLMIAEKPIRLEEFLTFGGQDLNIITSAMKEKIYNNLLANYEKIATRLSRVNSAPPEYDINEYKDYFQWKYGLDKNADGSYTVNENKFNEIYKKLYSFTEIDLANKFKVKCRNTYFIKYGFLKVPNLLDDDIYTVSEGFNIGNLAVNNRGQNIKLNPKIIDSIPDKGLVEKIVKFCKSVIPRKGTKAPPRLCIRVNNRELFFVASESSYNENDINTPKEIDDTTNLNNNYRNNLDEVILDYNSETIPQISNQTLNTLVQDDSYVPRYDSNGTSEIEEHNVVDLNVFFYLHAQKVPEGETNISLTSSIDTALSEESQVYTFFSSEFINTINKPVHAALFISWINQVIRDFTTEATQKSTFDKIADISLVVPYVGLALNIGNEVQKENFKEAFELLGAGILLEFVPELLIPTILVFTIKSFIGSSENKNKIIKAINNSLMERETKWKEIYSWIVSNWLTRINTQFNKRKEQMYQALQNQVDAIKTVIEYKYNNYTSDERNRLESEYNINNIREELNKKVSLAMENIERFITESSIFYLMKLINEAKVSKLREYDEGVKEYLLDYISEHRSILGNSVQELNDLVTSTLNNSIPFELSSYTNDKILILYFNKLYKKIKDNSILDMRYENNKFIDISGYGSNISINGDVYIYSTNRNQFGIYSSKPSEVNIAQNNDIIYNGRYQNFSISFWVRIPKYFNKVNLNNEYTIIDCIRNNNSGWKISLNYNKIIWTLQDTAGNNQKLVFNYTQMISISDYINKWIFVTITNNRLGNSRIYINGNLIDEKSISNLGDIHVSDNILFKIVGCNDTRYVGIRYFKVFDTELGKTEIETLYSDEPDPSILKDFWGNYLLYNKRYYLLNLLRTDKSITQNSNFLNINQQRGVYQKPNIFSNTRLYTGVEVIIRKNGSTDISNTDNFVRKNDLAYINVVDRDVEYRLYADISIAKPEKIIKLIRTSNSNNSLGQIIVMDSIGNNCTMNFQNNNGGNIGLLGFHSNNLVASSWYYNNIRKNTSSNGCFWSFISKEHGWQEN

Assays:
Test in all cases: cell-based or functional assay
[1] = molecular target: H6tHAtev1V(60-94)L (Photinus pyralis)
[2] = molecular target: H6tHA1V(2-94)-sfGFP-S (Bos taurus (Bovine)) (UniProt P63026)
[3] = molecular target: H6tHA1S(146-206)-NL-S (Macaca mulatta (Rhesus macaque)) (UniProt P60877)
[4] = molecular target: H6tHA1S(146-206)-sfGFP-S (Macaca mulatta (Rhesus macaque)) (UniProt P60877)
[5] = molecular target: H6tHAtev1S(146-206)LS D179KA199R (Photinus pyralis) (UniProt P60877)
[6] = molecular target: H6tHAtev1S(146-206)LS D179KN196QQ197NR198K (Photinus pyralis) (UniProt P60877)
[7] = molecular target: H6tHAtev1S(140-197)L (Photinus pyralis) (UniProt P60877)
[8] = molecular target: H6tHA1V(2-94)-sfGFP-S (Bos taurus (Bovine)) (UniProt P63026); remark: listed apart in the source

UniProt P63026, sequence (P63026 2-94): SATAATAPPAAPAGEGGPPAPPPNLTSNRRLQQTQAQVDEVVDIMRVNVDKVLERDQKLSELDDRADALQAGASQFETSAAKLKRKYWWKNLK

Molecule	EC50 of cleavage of generic substrate with reporter sfGFP, JDZ-buffer, 1 h 37°C [2] [nM]	EC50 of cleavage of generic substrate with reporter NL, JDZ-buffer, 1 h 37°C [3] [nM]	EC50 of cleavage of generic substrate with reporter sfGFP, JDZ-buffer, 1 h 37°C [4] [nM]	EC50 of substrate cleavage, endopeptidase assay, JDZ-buffer, 1 h 37°C [5] [nM]	EC50 of substrate cleavage, endopeptidase assay, JDZ-buffer, 1 h 37°C [6] [nM]	also measured
BoNT/B1 (recombinant, activated full-length) (from UniProt B1INP5 2-1291) (enzyme)	0.02	–	–	–	–	EC50 of substrate cleavage, endopeptidase assay, JDZ-buffer, 1 h 37°C [1]: 0.6 nM; fold increase of EC50 relative to generic H6tHAtev1V(2-94)LS [1]: 10 fold
BoNT/C (recombinant, activated full-length) (from UniProt P18640 2-1291) (enzyme)	–	10	20	200	0.6	fold decrease of EC50 relative to generic H6tHAtev1S(146-206)LS [6]: 16 fold
BoNT/D (recombinant, activated full-length) (from UniProt P19321 2-1276) (enzyme)	1	–	–	–	–	–
BoNT/A1 (recombinant, activated full-length) (from UniProt P0DPI1 2-1296) (enzyme)	–	0.01	0.03	0.4	–	–
BoNT/E1 (recombinant, activated full-length) (from UniProt Q00496 2-1251) (enzyme)	–	0.2	0.1	1000	1000	EC50 of substrate cleavage, endopeptidase assay, JDZ-buffer, 1 h 37°C [7]: 0.2 nM
B1	–	–	–	–	–	EC50 of cleavage of generic substrate with reporter sfGFP, JDZ-buffer, 1 h 37°C [8]: 0.06 nM
